# Patent publication US20170173114A1, “METHODS AND COMPOSITIONS FOR INDUCTION OF UCP1 EXPRESSION” (Joslin Diabetes Center, Inc., priority 2014, published 2017)
# “Also recorded” adds a separate entry of the source.
# How the values were obtained:
# WT-1 brown preadipocytes = assay: Mitochondrial DNA copy number and mitochondrial gene expression in brown preadipocytes; assay type: cell-based, murine; settings: 24 hours; vs control
# Method: In order to determine whether the marked changes in mitochondrial respiration observed in preadipocytes treated with FGF6 is due to increased mitochondrial mass and/or changes in mitochondrial dynamics, in addition to increased UCP1 expression, mitochondrial DNA (mtDNA) copy number (as the ratio of CoxII (mtDNA) over β-globin (nuclear DNA)) and expression of genes involved in mitochondrial replication (e.g., mTFA, Nrf1 and Nrf2) in brown preadipocytes was measured.
# [1] = system: 3T3-F442A white preadipocytes; assay: 2-deoxy-[3H]glucose uptake in 3T3-F442A white preadipocytes; assay type: cell-based; settings: FGF6 overexpressing vs control and EGF
# Method: The following glucose uptake assay was used to determine whether FGF6 could impact cellular glucose uptake. Specifically, glucose uptake was monitored in WT-1 brown preadipocytes and 3T3-F442A white preadipocytes in the presence or absence of FGF6. After serum starvation in DMEM/H medium containing 1% of BSA for 2-3 h, cells were washed with HEPES buffer and then incubated with or without 100 nM insulin for 30 min in DMEM/H medium containing 1% of BSA. Glucose transport was determined by the addition of 2-deoxy-[3H]glucose (0.1 mM, 0.5 μCi/mL; PerkinElmer Life and Analytical Science, Waltham, Mass.). After 5 minutes of incubation, the reaction was stopped by ice-cold PBS and cells were washed twice with ice-cold PBS. Cells were then lysed in 0.1% SDS, and glucose uptake was assessed in 4 mL of scintillant using Beckman LS6500 scintillation counter (Beckman Coulter, Indianapolis Ind.). Nonspecific 2-deoxy-[3H]glucose uptake was measured in the presence of cytochalasin B (20 μM) and was subtracted from the total uptake to get specific glucose uptake. Results were expressed as the mean±s.e.m. of the indicated number of experiments. The protein content was determined by the Bradford method.
# [2] = system: 3T3-F442A white preadipocytes; assay: Seahorse Bioanalyzer cellular respiration in 3T3-F442A white preadipocytes; assay type: cell-based; settings: constitutive overexpression of FGF6
# Description: The Seahorse XF24 (Seahorse Bioscience, http://www.seahorsebio.com/) was utilized for respirometry to measure oxygen consumption rates (OCR; indicating oxidative phosphorylation) and extracellular acidification rates (ECAR; indicating extracellular pH) in mature brown adipocytes. The cell plates and assay cartridges for the Seahorse XF24 have four ports allowing for drug delivery to individual wells during measurement of the metabolic parameters. For a typical bioenergetic profile, cells are first treated with oligomycin to block ATP synthase, FCCP as an uncoupler and Rotenone to block Complex 1 of the ETC (all from Sigma). Example 2 provides additional details regarding the general method. Data provided in the Figures (e.g., FIG. 27) based on the Seahorse Bioanalyzer includes a bottom horizontal line which represents the baseline of the mechanics of the machine and is not related to the experiment.
# To assess FGF6's role in the regulation of mitochondrial activity, FGF6 was stably expressed in WT-1 brown preadipocytes and 3T3-F442A white preadipocytes. Stable cells were generated by viral infection followed by drug selection.
# A profile of cellular respiration was developed by utilizing well-characterized mitochondrial toxins, as described in FIG. 5B. First, basal respiration was measured, followed by injection of oligomycin (an inhibitor of ATP synthase which allows measurement of ATP turnover). Then, the uncoupler FCCP (carbonilcyanide p-triflouromethoxyphenylhydrazone) was injected to measure respiratory capacity, followed by the complex 1 inhibitor rotenone (which prevents electron transfer activity and leaves only non-mitochondrial activity to be measured).
# As mentioned above, 3T3-F442A white preadipocytes were also used to determine FGF6's role in mitochondrial activity regulation.
# UCP1 protein = UCP1 protein in WT-1 cells (immunofluorescent staining, Western blot); assay type: cell-based, murine; settings: for UCP1 protein, immunofluorescent staining: relative to control cells
# Method: Cells were harvested in lysis buffer (50 mM HEPES, 137 mM NaCl, 1 mM MgCl2, 1 mM CaCl2, 10 mM Na2P2O7, 10 mM NaF, 2 mM EDTA, 10% glycerol, 1% Igepal CA-630, 2 mM vanadate, 10 μg/ml of leupeptin, 10 μg/ml of aprotinin, 2 mM phenylmethylsulfonyl fluoride; pH 7.4). After lysis, lysates were clarified by centrifugation at 12,000×g for 20 min at 4° C., the amount of protein in the supernatants was determined by the Bradford Protein Assay (Bio-Rad Laboratories, Hercules, Calif.). Proteins were directly solubilized in Laemmli sample buffer. Equal amounts of lysates were separated by sodium dodecyl sulfate-polyacrylamide gel electrophoresis and transferred to Immobolin-P membranes. Membranes were blocked overnight at 4° C. and incubated with the indicated antibody for 2 hours at room temperature. Specifically bound primary antibodies were detected with peroxidase-coupled secondary antibody and enhanced chemiluminescence (ECL, Amersham Biosciences, Piscataway, N.J.).
# The effect of FGF6 on differentiation of WT-1 murine brown preadipocytes was also examined. WT-1 cells can be induced to undergo brown adipocyte differentiation, characterized by lipid accumulation and expression of adipogenic and brown fat markers, as described above (Klein et al. (1999) J Biol Chem 274:34795; Tseng et al. (2005) Nat Cell Biol 7:601). WT-1 cells were treated with FGF6 in growth media (DMEM+10% FBS), a vehicle control (“control” or “C” referred to in FIGS. 3A-D), or induction media (“induction” or “I” referred to in FIGS. 3A-D) as described above for seven days. Following the treatment, cells were examined for the color of the culture media in combination with oil Red O staining, expression of adipogenic markers, expression of brown fat markers, immunofluorescent staining of cells with UCP1 and DPAI, and Western blot analysis to determine the presence of UCP1 and β-tubulin. The results are described in FIGS. 3A to 3D.
# FGF2, FGF6 and FGF9 were used at a dosage of 200 ng/mL. Cells were stained using immunofluorescent stains for UCP1 and DAPI (which binds to DNA).
molecule,measurement,setting,value
"FGF6: fibroblast growth factor 6; recombinant human FGF from R&D Systems, or mouse FGF6 cDNA overexpressed by lentiviral vector (protein) KRQRRLYCNVGIGFHLQVLPDGRISGTHEENPYSLLEISTVERGVVSLFGVRSALFVAMNSKGRLYATPSFQEECKFRETLLPNNYNAYESDLYQGTYIALSKYGRVKRGSKVSPIMTVTHFLPRI",expression of nuclear-encoded mitochondrial genes,WT-1 brown preadipocytes,not significantly altered
same,mitochondrial DNA copy number (CoxII over β-globin),WT-1 brown preadipocytes,no significant difference; also recorded: does not alter
same,glucose uptake level in F442A (white) preadipocytes,[1],increased
same,gain of ATP turnover,[2],5 fold
same,gain of proton leak,[2],5 fold
same,increase in cellular respiration,[2],5-10 fold
same,increase of basal respiration,[2],~7 fold
same,increase of maximal respiratory capacity,[2],~6 fold
same,"UCP1 protein, immunofluorescent staining","UCP1 protein; WT-1, 200 ng/mL with insulin 20 nM and T3 1 nM",significant levels of staining
same,"UCP1 protein, Western blot","UCP1 protein; WT-1, seven days",present
same,"UCP1 protein, immunofluorescent staining","UCP1 protein; WT-1, seven days",significant levels of staining
